Measurements taken from PMC9409277, “Ethyl Vinyl Ketone Activates K^+ Efflux to Regulate Stomatal Closure by MRP4-Dependent eATP Accumulation Working Upstream of H2O2 Burst in Arabidopsis” (International Journal of Molecular Sciences, 2022).

Key:
[1] = biological target: T1, RBOHF-His (RBOHF residues 1-387 in pET28A) (Arabidopsis, UniProt O48538 1-387); test: pull-down; glutathione beads with 50 µg DORN1-GST or GST incubated with 50 µg RBOHF-His; 1% NP40, 150 mM NaCl, 50 mM Tris-HCl, 1 mM EDTA, pH 7.5; 4 °C, 2 h; immunoblot with anti-GST and anti-His; conditions: both partners purified
T1 construct: RBOHF of Arabidopsis (AT1G64060), residues 1-387; Cloned into pET28A via EcoRI/XhoI; also called RBOHF with His tag; source: E. coli Rosetta (DE3)
T1 sequence (looked up): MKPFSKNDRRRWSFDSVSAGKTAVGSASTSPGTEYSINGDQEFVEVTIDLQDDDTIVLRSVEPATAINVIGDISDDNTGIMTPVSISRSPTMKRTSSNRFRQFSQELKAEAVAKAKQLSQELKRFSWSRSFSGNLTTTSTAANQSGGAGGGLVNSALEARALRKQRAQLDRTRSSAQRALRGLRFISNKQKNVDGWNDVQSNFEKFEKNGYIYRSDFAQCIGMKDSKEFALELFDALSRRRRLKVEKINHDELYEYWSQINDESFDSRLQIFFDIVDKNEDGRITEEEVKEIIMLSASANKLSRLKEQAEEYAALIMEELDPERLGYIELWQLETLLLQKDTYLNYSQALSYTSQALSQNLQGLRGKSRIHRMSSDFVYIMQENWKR

[2] = biological target: T2, DORN1-GST (DORN1 residues 344-616 in pGEX-4T-1) (Arabidopsis thaliana (Mouse-ear cress), UniProt Q9LSR8); test: GST pulldown with anti-His immunoblot
T2 chain: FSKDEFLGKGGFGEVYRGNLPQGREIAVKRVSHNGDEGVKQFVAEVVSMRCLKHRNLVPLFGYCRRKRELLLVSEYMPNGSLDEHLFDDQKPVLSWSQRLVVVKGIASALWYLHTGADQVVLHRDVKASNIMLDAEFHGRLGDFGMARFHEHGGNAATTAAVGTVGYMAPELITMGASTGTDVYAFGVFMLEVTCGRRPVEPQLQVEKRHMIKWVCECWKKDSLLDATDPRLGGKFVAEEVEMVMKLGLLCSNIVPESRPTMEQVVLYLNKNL

Binder | binding result [1] | binding result [2]
DORN1-GST (DORN1 residues 344-616 in pGEX-4T-1) (domain or fragment, Arabidopsis, UniProt Q9LSR8 344-616, looked up, DORN1 of Arabidopsis (AT5G60300), residues 344-616; Printed both as DORN1-GST and as GST–DORN1; cloned into pGEX-4T-1 via EcoRI/XhoI; also called DORN-GST; source: E. coli Rosetta (DE3), on glutathione beads) FSKDEFLGKGGFGEVYRGNLPQGREIAVKRVSHNGDEGVKQFVAEVVSMRCLKHRNLVPLFGYCRRKRELLLVSEYMPNGSLDEHLFDDQKPVLSWSQRLVVVKGIASALWYLHTGADQVVLHRDVKASNIMLDAEFHGRLGDFGMARFHEHGGNAATTAAVGTVGYMAPELITMGASTGTDVYAFGVFMLEVTCGRRPVEPQLQVEKRHMIKWVCECWKKDSLLDATDPRLGGKFVAEEVEMVMKLGLLCSNIVPESRPTMEQVVLYLNKNL | binds | –
RBOHF-His (RBOHF residues 1-387 in pET28A) (protein) MKPFSKNDRRRWSFDSVSAGKTAVGSASTSPGTEYSINGDQEFVEVTIDLQDDDTIVLRSVEPATAINVIGDISDDNTGIMTPVSISRSPTMKRTSSNRFRQFSQELKAEAVAKAKQLSQELKRFSWSRSFSGNLTTTSTAANQSGGAGGGLVNSALEARALRKQRAQLDRTRSSAQRALRGLRFISNKQKNVDGWNDVQSNFEKFEKNGYIYRSDFAQCIGMKDSKEFALELFDALSRRRRLKVEKINHDELYEYWSQINDESFDSRLQIFFDIVDKNEDGRITEEEVKEIIMLSASANKLSRLKEQAEEYAALIMEELDPERLGYIELWQLETLLLQKDTYLNYSQALSYTSQALSQNLQGLRGKSRIHRMSSDFVYIMQENWKR | – | binds
